From paper PMC3684718, “Novel CAD-like enzymes from Escherichia coli K-12 as additional tools in chemical production” (Applied Microbiology and Biotechnology, 2012)

B1: YjgB (Escherichia coli K-12) (protein)
chain: MSMIKSYAAKEAGGELEVYEYDPGELRPQDVEVQVDYCGICHSDLSMIDNEWGFSQYPLVAGHEVIGRVVALGSAAQDKGLQVGQRVGIGWTARSCGHCDACISGNQINCEQGAVPTIMNRGGFAEKLRADWQWVIPLPENIDIESAGPLLCGGITVFKPLLMHHITATSRVGVIGIGGLGHIAIKLLHAMGCEVTAFSSNPAKEQEVLAMGADKVVNSRDPQALKALAGQFDLIINTVNVSLDWQPYFEALTYGGNFHTVGAVLTPLSVPAFTLIAGDRSVSGSATGTPYELRKLMRFAARSKVAPTTELFPMSKINDAIQHVRDGKARYRVVLKADF
notes: expressed in E. coli BL21(DE3) with ZnCl2
B2: YahK (Escherichia coli K-12) (protein)
chain: MKIKAVGAYSAKQPLEPMDITRREPGPNDVKIEIAYCGVCHSDLHQVRSEWAGTVYPCVPGHEIVGRVVAVGDQVEKYAPGDLVGVGCIVDSCKHCEECEDGLENYCDHMTGTYNSPTPDEPGHTLGGYSQQIVVHERYVLRIRHPQEQLAAVAPLLCAGITTYSPLRHWQAGPGKKVGVVGIGGLGHMGIKLAHAMGAHVVAFTTSEAKREAAKALGADEVVNSRNADEMAAHLKSFDFILNTVAAPHNLDDFTTLLKRDGTMTLVGAPATPHKSPEVFNLIMKRRAIAGSMIGGIPETQEMLDFCAEHGIVADIEMIRADQINEAYERMLRGDVKYRFVIDNRTLTD
notes: as for B1

Assays:
[1] = substrate: OCCCCO; assay: purified protein, by the assay type; set-up: NADPH/NADP+ absorbance at 340 nm, purified His-tagged enzyme, Michaelis-Menten fit; pH 7.5 reduction, pH 8.5 oxidation, 37 °C
Experimental: (§1) The ADH activity was determined photometrically by monitoring the increase/decrease of NADP^+/NADPH at 340 nm in a Mulitskan® spectrum spectrophotometer (Thermo Fisher Scientific). The reaction mixture contained 50 mM Tris-HCl, pH 7.5, 0.3 mM NAD(P)H a defined aldehyde as substrate, and the purified enzyme at 37 °C. One unit of enzyme activity was defined as the amount of protein that oxidizes 1 μmol of NAD(P)H/min at 37 °C. Calculation of Michaelis–Menten kinetics for determination of K m and V max was done with SigmaPlot 11.0 (Systat Software). Alcohols with alkyl chains longer than C6 were not tested as substrates due to solubility problems. For the characterization of recombinant YahK and YjgB, enzyme activity was assayed for the reduction of carbonyl compounds and the oxidation of alcohols. For the reduction of carbonyl compounds, the assays were conducted at pH 7.5, 50 mM Tris-HCl, and 37 °C. The oxidation of alcohols was assayed with a slightly higher pH of 8.5, 50 mM Tris-HCl, and 37 °C. […] The decrease of NADPH at 340 nm was determined using a Shimadzu UV-1800 UV-spectrophotometer (Duisburg, Germany) Protein expression is exemplarily described for one enzyme and was performed for other proteins by the same procedure. E. coli BL21(DE3) containing the plasmid of interest was grown in 50 ml autoinduction media for efficient protein expression (Studier [2005]). In the case of YjgB, YahK, and YqhD, additional ZnCl2 was added to the media with a final concentration of 0.1 mM. The preculture was incubated in 4 ml of LB medium with 100 μg/ml kanamycin at 37 °C overnight on a rotary shaker (180 rpm). Expression culture was inoculated with a 1:100 dilution of overnight culture. Incubation was performed foremost 3 h at 37 °C followed by incubation for 21 h at 16 °C. Cells were harvested by centrifugation and resuspended in 50 mM sodium phosphate buffer (pH 8.0, 20 mM imidazol, 500 mM NaCl, and 10 % glycerol). Crude extracts were prepared by use of a cell disrupter (IUL Instruments) and subsequent addition of MgCl2 to a final concentration of 2.5 mM in combination with DNase (1 μg/ml) and a following incubation for 20 min at room temperature for DNA degradation. The insoluble fraction of the lysate was removed by centrifugation at 20,000 rpm for 40 min at 4 °C. The supernatant was filtered through a 0.45-μm syringe filter and applied to an affinity resin column, 5 ml HisTrap^TM FF, equilibrated with the resuspension buffer using the ÄKTA UPC-900 FPLC-system. The enzyme was washed with 20 ml of resuspension buffer and eluted with 50 mM sodium phosphate buffer (pH 8.0, 500 mM imidazol, 500 mM NaCl, and 10 % glycerol). Aliquots of each eluted fraction were subjected to 12 % SDS-PAGE. The fractions containing the eluted protein were pooled and the protein was desalted using a HiPrep^TM 26/10 Desalting column which preliminary equilibrated with 50 mM Tris-HCl, pH 8.0. Protein concentrations were determined using a Bradford assay Roti®-nanoquant (Carl Roth).

[2] = substrate: CC=O; assay: purified protein, by the assay type; set-up: NADPH/NADP+ absorbance at 340 nm, purified His-tagged enzyme, Michaelis-Menten fit; pH 7.5 reduction, pH 8.5 oxidation, 37 °C
Experimental: as §1

[3] = substrate: CC(C)C=O; assay: purified protein, by the assay type; set-up: NADPH/NADP+ absorbance at 340 nm, purified His-tagged enzyme, Michaelis-Menten fit; pH 7.5 reduction, pH 8.5 oxidation, 37 °C
Experimental: as §1

purified protein [4] = substrate: CCCCCC=O; assay: purified protein; settings: NADPH 0.3 mM, 50 mM Tris-HCl pH 7.5, 37 °C
purified protein [5] = substrate: CCCCO; assay: purified protein; format: biochemical, Escherichia coli; settings: NADP+, 50 mM Tris-HCl pH 8.5, 37 °C, pH 8.5
purified protein [6] = substrate: O=Cc1ccccc1; assay: purified protein; format: biochemical, Escherichia coli; settings: NADPH 0.3 mM, 50 mM Tris-HCl pH 7.5, 37 °C, pH 7.5
purified protein [7] = substrate: C/C=C/C=O; assay: purified protein; format: biochemical, Escherichia coli; settings: NADPH 0.3 mM, 50 mM Tris-HCl pH 7.5, 37 °C, pH 7.5
purified protein [8] = substrate: CCCC=O; assay: purified protein; format: biochemical, Escherichia coli; settings: NADPH 0.3 mM, 50 mM Tris-HCl pH 7.5, 37 °C, pH 7.5
purified protein [9] = substrate: CCC=O; assay: purified protein; format: biochemical, Escherichia coli; settings: NADPH 0.3 mM, 50 mM Tris-HCl pH 7.5, 37 °C, pH 7.5
purified protein [10] = substrate: NC(=O)C1=CN([C@@H]2O[C@H](COP(=O)(O)OP(=O)(O)OC[C@H]3O[C@@H](n4cnc5c(N)ncnc54)[C@H](OP(=O)(O)O)[C@@H]3O)[C@@H](O)[C@H]2O)C=CC1; assay: purified protein; format: biochemical, Escherichia coli; settings: butyraldehyde, 50 mM Tris-HCl pH 7.5, 37 °C, pH 7.5, varied: cofactor
purified protein [11] = substrate: O=CCCCC=O; assay: purified protein; format: biochemical, Escherichia coli; settings: NADPH 0.3 mM, 50 mM Tris-HCl pH 7.5, 37 °C, pH 7.5
purified protein [12] = substrate: NC(=O)c1ccc[n+]([C@@H]2O[C@H](COP(=O)(O)OP(=O)(O)OC[C@H]3O[C@@H](n4cnc5c(N)ncnc54)[C@H](OP(=O)(O)O)[C@@H]3O)[C@@H](O)[C@H]2O)c1; assay: purified protein; format: biochemical, Escherichia coli; settings: butanol, 50 mM Tris-HCl pH 8.5, 37 °C, pH 8.5, varied: cofactor
purified protein [13] = substrate: O=Cc1ccco1; assay: purified protein; format: biochemical, Escherichia coli; settings: NADPH 0.3 mM, 50 mM Tris-HCl pH 7.5, 37 °C, pH 7.5
[14] = substrate: CCC=O; assay: purified protein, by the assay type; set-up: NADPH/NADP+ absorbance at 340 nm, purified His-tagged enzyme, Michaelis-Menten fit; pH 7.5 reduction, pH 8.5 oxidation, 37 °C
Experimental: as §1

purified protein [15] = substrate: O=C[C@H](O)CO; assay: purified protein; settings: NADPH 0.3 mM, 50 mM Tris-HCl pH 7.5, 37 °C
purified protein [16] = substrate: CC(C)C=O; assay: purified protein; settings: NADPH 0.3 mM, 50 mM Tris-HCl pH 7.5, 37 °C

| Protein | Km [1] [µM] | kcat [1] [s⁻¹] | kcat/Km [1] [M⁻¹ s⁻¹] | Km [2] [µM] | kcat [2] [s⁻¹] | kcat/Km [2] [M⁻¹ s⁻¹] | Km (purified protein [4]) [µM] | kcat (purified protein [4]) [s⁻¹] | kcat/Km (purified protein [4]) [M⁻¹ s⁻¹] | Km (purified protein [6]) [µM] | kcat (purified protein [6]) [s⁻¹] | kcat/Km (purified protein [6]) [M⁻¹ s⁻¹] | Km (purified protein [7]) [µM] | kcat (purified protein [7]) [s⁻¹] | kcat/Km (purified protein [7]) [M⁻¹ s⁻¹] | Km (purified protein [8]) [µM] | kcat (purified protein [8]) [s⁻¹] | kcat/Km (purified protein [8]) [M⁻¹ s⁻¹] | Km (purified protein [10]) [µM] | kcat (purified protein [10]) [s⁻¹] | other results |
| --- | --- | --- | --- | --- | --- | --- | --- | --- | --- | --- | --- | --- | --- | --- | --- | --- | --- | --- | --- | --- | --- |
| B1 | 24100 ± 1500 | 12.9 ± 0.4 | 530 | 73400 ± 5400 | 333 ± 26.1 | 4500 | 340 ± 30 | 419 | 1.23e+06 | 240 ± 20 | 313 ± 7.4 | 1.3e+06 | 2400 ± 200 | 77.6 ± 3.3 | 32300 | 2100 ± 90 | 464 ± 24.2 | 221000 | 60 ± 3 | 224 ± 36.5 | Km [3]: 193700 ± 27500 µM; kcat [3]: 50.8 ± 9.4 s⁻¹; kcat/Km [3]: 260 M⁻¹ s⁻¹; Km (purified protein [5]): 3500 ± 280 µM; kcat (purified protein [5]): 13.8 ± 0.6 s⁻¹; kcat/Km (purified protein [5]): 3940 M⁻¹ s⁻¹; Km (purified protein [9]): 19600 ± 800 µM; kcat (purified protein [9]): 207 ± 2.9 s⁻¹; kcat/Km (purified protein [9]): 10600 M⁻¹ s⁻¹; kcat/Km (purified protein [10]): 3.73e+06 M⁻¹ s⁻¹; Km (purified protein [11]): 5800 ± 500 µM; kcat (purified protein [11]): 312 ± 14.8 s⁻¹; kcat/Km (purified protein [11]): 53800 M⁻¹ s⁻¹; Km (purified protein [12]): 76 ± 10 µM; kcat (purified protein [12]): 14.4 ± 0.2 s⁻¹; kcat/Km (purified protein [12]): 189000 M⁻¹ s⁻¹; Km (purified protein [13]): 220 ± 20 µM; kcat (purified protein [13]): 224 ± 26.9 s⁻¹; kcat/Km (purified protein [13]): 1.02e+06 M⁻¹ s⁻¹ |
| B2 | 38500 ± 2900 | 6.7 ± 0.3 | 180 | 13300 ± 1000 | 11.2 ± 0.7 | 840 | 370 ± 20 | 18.3 | 49500 | 290 ± 20 | 7.75 ± 0.5 | 26700 | 3600 ± 400 | 32.6 ± 2.1 | 9100 | 2100 ± 100 | 41.6 ± 0.6 | 19800 | 11 ± 1 | 9.8 ± 0.4 | Km [14]: 10900 ± 1000 µM; kcat [14]: 11.6 ± 0.6 s⁻¹; kcat/Km [14]: 1100 M⁻¹ s⁻¹; Km (purified protein [15]): 4400 ± 400 µM; kcat (purified protein [15]): 12.3 s⁻¹; kcat/Km (purified protein [15]): 2800 M⁻¹ s⁻¹; Km (purified protein [16]): 2200 ± 200 µM; kcat (purified protein [16]): 32.1 s⁻¹; kcat/Km (purified protein [16]): 14600 M⁻¹ s⁻¹; kcat/Km (purified protein [10]): 894000 M⁻¹ s⁻¹; Km (purified protein [11]): 4100 ± 400 µM; kcat (purified protein [11]): 13.4 ± 1.5 s⁻¹; kcat/Km (purified protein [11]): 3300 M⁻¹ s⁻¹; Km (purified protein [12]): 12 ± 1 µM; kcat (purified protein [12]): 7.47 ± 0.07 s⁻¹; kcat/Km (purified protein [12]): 622000 M⁻¹ s⁻¹; Km (purified protein [13]): 135 ± 30 µM; kcat (purified protein [13]): 12.5 ± 1.9 s⁻¹; kcat/Km (purified protein [13]): 92300 M⁻¹ s⁻¹ |
